Measured values published in publication PMC11892650 (Proceedings of the National Academy of Sciences of the …, 2025).
Substitutions are numbered along the chain they refer to. Names may count otherwise. “And” between values parts separate entries of the source, which are not always exact repeats. Identical values can stand only once. Values belong to the molecule of their own block, whether it stands above or below them.

Legend:
[1] = target: c-Jun N-terminal kinase 1 (JNK1), inactive, unphosphorylated form (UniProt P45983); test: native MS
c-Jun N-terminal kinase 1 (JNK1), inactive, unphosphorylated form (UniProt P45983), sequence (P45983 5-364): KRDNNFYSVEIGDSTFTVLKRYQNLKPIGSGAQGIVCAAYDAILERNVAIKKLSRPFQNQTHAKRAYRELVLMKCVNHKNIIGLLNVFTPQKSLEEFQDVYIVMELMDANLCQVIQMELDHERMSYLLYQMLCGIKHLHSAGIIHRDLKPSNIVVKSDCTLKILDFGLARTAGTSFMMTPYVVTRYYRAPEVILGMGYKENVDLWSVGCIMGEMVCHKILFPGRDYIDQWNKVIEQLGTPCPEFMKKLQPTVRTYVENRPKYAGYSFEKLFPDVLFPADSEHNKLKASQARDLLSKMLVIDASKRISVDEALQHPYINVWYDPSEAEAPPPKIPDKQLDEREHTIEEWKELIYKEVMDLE

[2] = target: RPLL mutant of JIP1_(116–266) (R160E, P161A, L164A, L166A) (UniProt Q9UQF2); test: NMR 15N CPMG relaxation dispersion
[3] = target: T1, c-Jun N-terminal kinase 1 (JNK1), inactive, unphosphorylated form (UniProt P45983 5-364); test: ITC
T1 sequence (P45983 5-364): as above

[4] = target: T1, c-Jun N-terminal kinase 1 (JNK1), …; test: native MS

Molecule: JIP1_(1–145) (from UniProt Q9UQF2 1-145) (domain or fragment)
stoichiometry N [1]: 1

Molecule: c-Jun N-terminal kinase 1 (JNK1), inactive, unphosphorylated form (from UniProt P45983 5-364) (enzyme)
Kd [2]: 2200 µM
bound-state population pB [2]: 1.6%
exchange rate constant kex [2]: 1100 s⁻¹
koff [2]: 1080 s⁻¹
kon [2]: 480000 M⁻¹ s⁻¹

B3: peptide corresponding to the D-motif of JIP1 (157RPKRPTTLNLF167) (peptide)
peptide: RPKRPTTLNLF
Kd [3]: 0.217 µM

B4: JIP1_(1–266) (domain or fragment, UniProt Q9UQF2 1-266, looked up)
chain: MAERESGGLGGGAASPPAASPFLGLHIASPPNFRLTHDISLEEFEDEDLSEITDECGISLQCKDTLSLRPPRAGLLSAGGGGAGSRLQAEMLQMDLIDATGDTPGAEDDEEDDDEERAARRPGAGPPKAESGQEPASRGQGQSQGQSQGPGSGDTYRPKRPTTLNLFPQVPRSQDTLNNNSLGKKHSWQDRVSRSSSPLKTGEQTPPHEHICLSDELPPQSGPAPTTDRGTSTDSPCRRSTATQMAPPGGPPAAPPGGRGHSHRDR
stoichiometry N [4]: 1 and 2 JNK1 per JIP1

Results, then the molecule that gave them:

Kd [3]: 0.082 µM
dH [3]: -10.7 kcal/mol
stoichiometry N [4]: 1
B1: IL mutant of JIP1_(116–266) (I211A, L213A) (domain or fragment, UniProt Q9UQF2 116-266, looked up)
chain: ERAARRPGAGPPKAESGQEPASRGQGQSQGQSQGPGSGDTYRPKRPTTLNLFPQVPRSQDTLNNNSLGKKHSWQDRVSRSSSPLKTGEQTPPHEHACASDELPPQSGPAPTTDRGTSTDSPCRRSTATQMAPPGGPPAAPPGGRGHSHRDR

Kd [3]: 0.081 µM
dH [3]: -11.6 kcal/mol
ΔΔH (binding enthalpy against the D-motif peptide) [3]: 4 kcal/mol
stoichiometry N [4]: 1
B2: JIP1_(116–266), the shortest construct comprising the D-motif (domain or fragment, UniProt Q9UQF2 116-266, looked up)
chain: B1 chain with A96I, A98L
